# Measurements as given in article PMC3162391 (The Journal of Biological Chemistry, 2011).
# Target: the molecule itself
# Assay: FRET or BRET
protein,measurement,value
"CD5 BRET pair (CD5Luc and CD5GFP) (receptor, human, UniProt P06127 25-495, looked up) RLSWYDPDFQARLTRSNSKCQGQLEVYLKDGWHMVCSQSWGRSSKQWEDPSQASKVCQRLNCGVPLSLGPFLVTYTPQSSIICYGQLGSFSNCSHSRNDMCHSLGLTCLEPQKTTPPTTRPPPTTTPEPTAPPRLQLVAQSGGQHCAGVVEFYSGSLGGTISYEAQDKTQDLENFLCNNLQCGSFLKHLPETEAGRAQDPGEPREHQPLPIQWKIQNSSCTSLEHCFRKIKPQKSGRVLALLCSGFQPKVQSRLVGGSSICEGTVEVRQGAQWAALCDSSSARSSLRWEEVCREQQCGSVNSYRVLDAGDPTSRGLFCPHQKLSQCHELWERNSYCKKVFVTCQDPNPAGLAAGTVASIILALVLLVVLLVVCGPLAYKKLVKKFRQKKQRQWIGPTGMNQNMSFHRNHTATVRSHAENPTASHVDNEYSQPPRNSHLSAYPALEGALHRSSMQPDNSSDSDYDLHGAQRL",stoichiometry N,2
